Laboratory results reported in patent US20260176314.

B1: ScMNN6(M1-P30)_Fam20c(R32-R584)_FLAG (protein)
chain: RLERRGARPSGEPGCSCAQPAAEVAAPGWAQVRGRPGEPPAASSAAGDAGWPNKHTLRILQDFSSDPSSNLSSHSLEKLPPAAEPAERALRGRDPGALRPHDPAHRPLLRDPGPRRSESPPGPGGDASLLARLFEHPLYRVAVPPLTEEDVLFNVNSDTRLSPKAAENPDWPHAGAEGAEFLSPGEAAVDSYPNWLKFHIGINRYELYSRHNPAIEALLHDLSSQRITSVAMKSGGTQLKLIMTFQNYGQALFKPMKQTREQETPPDFFYFSDYERHNAEIAAFHLDRILDFRRVPPVAGRMVNMTKEIRDVTRDKKLWRTFFISPANNICFYGECSYYCSTEHALCGKPDQIEGSLAAFLPDLSLAKRKTWRNPWRRSYHKRKKAEWEVDPDYCEEVKQTPPYDSSHRILDVMDMTIFDFLMGNMDRHHYETFEKFGNETFIIHLDNGRGFGKYSHDELSILVPLQQCCRIRKSTYLRLQLLAKEEYKLSLLMAESLRGDQVAPVLYQPHLEALDRRLRVVLKAVRDCVERNGLHSVVDDDLDTEHRAASARDYKDDDDK
B2: ScMNN1(M1-A42)_Fam20c(D93-R584)_FLAG (protein)
chain: MLALRRFILNQRSLRSCTIPILVGALIIILVLFQLVTHRNDADFSSDPSSNLSSHSLEKLPPAAEPAERALRGRDPGALRPHDPAHRPLLRDPGPRRSESPPGPGGDASLLARLFEHPLYRVAVPPLTEEDVLFNVNSDTRLSPKAAENPDWPHAGAEGAEFLSPGEAAVDSYPNWLKFHIGINRYELYSRHNPAIEALLHDLSSQRITSVAMKSGGTQLKLIMTFQNYGQALFKPMKQTREQETPPDFFYFSDYERHNAEIAAFHLDRILDFRRVPPVAGRMVNMTKEIRDVTRDKKLWRTFFISPANNICFYGECSYYCSTEHALCGKPDQIEGSLAAFLPDLSLAKRKTWRNPWRRSYHKRKKAEWEVDPDYCEEVKQTPPYDSSHRILDVMDMTIFDFLMGNMDRHHYETFEKFGNETFIIHLDNGRGFGKYSHDELSILVPLQQCCRIRKSTYLRLQLLAKEEYKLSLLMAESLRGDQVAPVLYQPHLEALDRRLRVVLKAVRDCVERNGLHSVVDDDLDTEHRAASARDYKDDDDK
B3: ScMNN2(M1-S36)_Fam20c(R32-R584)_FLAG (protein)
chain: MLLTKRFSKLFKLTFIVLILCGLFVITNKYMDENTSRLERRGARPSGEPGCSCAQPAAEVAAPGWAQVRGRPGEPPAASSAAGDAGWPNKHTLRILQDFSSDPSSNLSSHSLEKLPPAAEPAERALRGRDPGALRPHDPAHRPLLRDPGPRRSESPPGPGGDASLLARLFEHPLYRVAVPPLTEEDVLFNVNSDTRLSPKAAENPDWPHAGAEGAEFLSPGEAAVDSYPNWLKFHIGINRYELYSRHNPAIEALLHDLSSQRITSVAMKSGGTQLKLIMTFQNYGQALFKPMKQTREQETPPDFFYFSDYERHNAEIAAFHLDRILDFRRVPPVAGRMVNMTKEIRDVTRDKKLWRTFFISPANNICFYGECSYYCSTEHALCGKPDQIEGSLAAFLPDLSLAKRKTWRNPWRRSYHKRKKAEWEVDPDYCEEVKQTPPYDSSHRILDVMDMTIFDFLMGNMDRHHYETFEKFGNETFIIHLDNGRGFGKYSHDELSILVPLQQCCRIRKSTYLRLQLLAKEEYKLSLLMAESLRGDQVAPVLYQPHLEALDRRLRVVLKAVRDCVERNGLHSVVDDDLDTEHRAASARDYKDDDDK
B4: ScMNN2(M1-P97)_Fam20c(R32-R584)_FLAG (protein)
chain: MLLTKRFSKLFKLTFIVLILCGLFVITNKYMDENTSVKEYKEYLDRYVQSYSNKYSSSSDAASADDSTPLRDNDEAGNEKLKSFYNNVFNFLMVDSPRLERRGARPSGEPGCSCAQPAAEVAAPGWAQVRGRPGEPPAASSAAGDAGWPNKHTLRILQDFSSDPSSNLSSHSLEKLPPAAEPAERALRGRDPGALRPHDPAHRPLLRDPGPRRSESPPGPGGDASLLARLFEHPLYRVAVPPLTEEDVLFNVNSDTRLSPKAAENPDWPHAGAEGAEFLSPGEAAVDSYPNWLKFHIGINRYELYSRHNPAIEALLHDLSSQRITSVAMKSGGTQLKLIMTFQNYGQALFKPMKQTREQETPPDFFYFSDYERHNAEIAAFHLDRILDFRRVPPVAGRMVNMTKEIRDVTRDKKLWRTFFISPANNICFYGECSYYCSTEHALCGKPDQIEGSLAAFLPDLSLAKRKTWRNPWRRSYHKRKKAEWEVDPDYCEEVKQTPPYDSSHRILDVMDMTIFDFLMGNMDRHHYETFEKFGNETFIIHLDNGRGFGKYSHDELSILVPLQQCCRIRKSTYLRLQLLAKEEYKLSLLMAESLRGDQVAPVLYQPHLEALDRRLRVVLKAVRDCVERNGLHSVVDDDLDTEHRAASARDYKDDDDK
B5: ScMNN2(M1-S150)_Fam20c(R32-R584)_FLAG (protein)
chain: MLLTKRFSKLFKLTFIVLILCGLFVITNKYMDENTSVKEYKEYLDRYVQSYSNKYSSSSDAASADDSTPLRDNDEAGNEKLKSFYNNVFNFLMVDSPKGSTAKQYNEACLLKGDIGDRPDHYKDLYKLSAKELSKCLELSPDEVASLTKSRLERRGARPSGEPGCSCAQPAAEVAAPGWAQVRGRPGEPPAASSAAGDAGWPNKHTLRILQDFSSDPSSNLSSHSLEKLPPAAEPAERALRGRDPGALRPHDPAHRPLLRDPGPRRSESPPGPGGDASLLARLFEHPLYRVAVPPLTEEDVLFNVNSDTRLSPKAAENPDWPHAGAEGAEFLSPGEAAVDSYPNWLKFHIGINRYELYSRHNPAIEALLHDLSSQRITSVAMKSGGTQLKLIMTFQNYGQALFKPMKQTREQETPPDFFYFSDYERHNAEIAAFHLDRILDFRRVPPVAGRMVNMTKEIRDVTRDKKLWRTFFISPANNICFYGECSYYCSTEHALCGKPDQIEGSLAAFLPDLSLAKRKTWRNPWRRSYHKRKKAEWEVDPDYCEEVKQTPPYDSSHRILDVMDMTIFDFLMGNMDRHHYETFEKFGNETFIIHLDNGRGFGKYSHDELSILVPLQQCCRIRKSTYLRLQLLAKEEYKLSLLMAESLRGDQVAPVLYQPHLEALDRRLRVVLKAVRDCVERNGLHSVVDDDLDTEHRAASARDYKDDDDK
B6: ScKRE(M1-I58)_Fam20c(R32-R584)_FLAG (protein)
chain: MALFLSKRLLRFTVIAGAVIVLLLTLNSNSRTQQYIPSSISAAFDFTSGSISPEQQVIRLERRGARPSGEPGCSCAQPAAEVAAPGWAQVRGRPGEPPAASSAAGDAGWPNKHTLRILQDFSSDPSSNLSSHSLEKLPPAAEPAERALRGRDPGALRPHDPAHRPLLRDPGPRRSESPPGPGGDASLLARLFEHPLYRVAVPPLTEEDVLFNVNSDTRLSPKAAENPDWPHAGAEGAEFLSPGEAAVDSYPNWLKFHIGINRYELYSRHNPAIEALLHDLSSQRITSVAMKSGGTQLKLIMTFQNYGQALFKPMKQTREQETPPDFFYFSDYERHNAEIAAFHLDRILDFRRVPPVAGRMVNMTKEIRDVTRDKKLWRTFFISPANNICFYGECSYYCSTEHALCGKPDQIEGSLAAFLPDLSLAKRKTWRNPWRRSYHKRKKAEWEVDPDYCEEVKQTPPYDSSHRILDVMDMTIFDFLMGNMDRHHYETFEKFGNETFIIHLDNGRGFGKYSHDELSILVPLQQCCRIRKSTYLRLQLLAKEEYKLSLLMAESLRGDQVAPVLYQPHLEALDRRLRVVLKAVRDCVERNGLHSVVDDDLDTEHRAASARDYKDDDDK
B7: ScKRE2(M1-S80)_Fam20c(D93-R584)_FLAG (protein)
chain: MALFLSKRLLRFTVIAGAVIVLLLTLNSNSRTQQYIPSSISAAFDFTSGSISPEQQVISEENDAKKLEQSALNSEASEDSDFSSDPSSNLSSHSLEKLPPAAEPAERALRGRDPGALRPHDPAHRPLLRDPGPRRSESPPGPGGDASLLARLFEHPLYRVAVPPLTEEDVLFNVNSDTRLSPKAAENPDWPHAGAEGAEFLSPGEAAVDSYPNWLKFHIGINRYELYSRHNPAIEALLHDLSSQRITSVAMKSGGTQLKLIMTFQNYGQALFKPMKQTREQETPPDFFYFSDYERHNAEIAAFHLDRILDFRRVPPVAGRMVNMTKEIRDVTRDKKLWRTFFISPANNICFYGECSYYCSTEHALCGKPDQIEGSLAAFLPDLSLAKRKTWRNPWRRSYHKRKKAEWEVDPDYCEEVKQTPPYDSSHRILDVMDMTIFDFLMGNMDRHHYETFEKFGNETFIIHLDNGRGFGKYSHDELSILVPLQQCCRIRKSTYLRLQLLAKEEYKLSLLMAESLRGDQVAPVLYQPHLEALDRRLRVVLKAVRDCVERNGLHSVVDDDLDTEHRAASARDYKDDDDK

Target: FLAG_TRX_SPP1 (G158-N314)_HiBiT
Sequence (chain, as listed by the source): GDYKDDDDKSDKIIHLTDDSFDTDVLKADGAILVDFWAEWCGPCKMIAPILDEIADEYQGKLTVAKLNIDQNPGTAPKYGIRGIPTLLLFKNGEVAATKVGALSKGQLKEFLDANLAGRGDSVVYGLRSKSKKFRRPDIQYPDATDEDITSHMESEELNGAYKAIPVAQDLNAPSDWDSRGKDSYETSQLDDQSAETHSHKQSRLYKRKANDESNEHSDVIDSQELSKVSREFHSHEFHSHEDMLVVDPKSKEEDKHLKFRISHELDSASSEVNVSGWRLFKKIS

Row | Protein | Phosphorylation
1 | B1 | Yes
2 | B2 | Yes
3 | B3 | Yes
4 | B4 | Yes
5 | B5 | Yes
6 | B6 | Yes
7 | B7 | Yes
